Measured values reported in the DeepSol protein solubility set.

Assay: soluble on expression in E. coli; label from the status in PepcDB or PDB records

Sequence	soluble on expression in E. coli
MAHHHHHHMMRSPFERLYHLNNRRDRDERRNKVFQLSLLERIRDRIVSGSLKEDIARKEERLRKQEEMLTSPNGVFVRLYQNSSPRRSSNAAAEGSDCKSVGEGNRDGRASVNTTGVSSQRASTARSRMSAAESQELCNRLYETAAIVKQKKEAMRKQSVEERQRQQAEELLIARLAGQIQLERSRTRASSKRRPKTPAQLEDEARAALEKLRKEDPEGYEKKVLRGRLLSPAERVMQAERLWKHGYISKAKLEAQKKVLELKKCTFQPTINEFSGSAGVAGSGETRGKGGGGTNDDKHLSAGTDRAQRHRKANRFEELYRKGIQAKVRGETLREERDREARLRILRSRMVSDHHFRRRVELDPLLAERFMKSLVV	not soluble
MDPTETFARMNKVMHQTLKYVKEVESINFSSRGVIDFNGEVMEDHQRIFLSVCTSVFANFSFSCQMDVEKLLSFLMALFENYSKENAYHNALHAADSVQMLFLILREKPATLIFTENEVILAFLATLSLGFVHPGVSNAFLARIDHPLVLVYGDMTTQQSAGLTALLYLLNREENRFIDLFANSGTQPFSQFLREILVETVLGTAPRLRSSLLRDLEKVAVADAVELNDIPILLAAVVILADNALALRPHAQFVNLAGLMVTEWLREAYEEEQRGMDPLVPNLRKQIYENGLGMAVDYCKVWLRPLITNIRALVPQDLYDNMEGNTEAPSMSEIQDFLVHLDSSNERWNDGSVPVIDIIRRITMHATSLDRKASKRAILNAASN	not soluble
MSLEPKYQRILIKLSGEALAGEKGVGIDIPTVQAIAKEIAEVHVSGVQIALVIGGGNLWRGEPAADAGMDRVQADYTGMLGTVMNALVMADSLQHYGVDTRVQTAIPMQNVAEPYIRGRALRHLEKNRIVVFGAGIGSPYFSTDTTAALRAAEIEADAILMAKNGVDGVYNADPKKDANAVKFDELTHGEVIKRGLKIMDATASTLSMDNDIDLVVFNMNEAGNIQRVVFGEHIGTTVSNKVCDEGHHHHHH	soluble
GSMSSFLGKWKLSESHNFDAVMSKLGVSWATRQIGNTVTPTVTFTMDGDKMTMLTESTFKNLSCTFKFGEEFDEKTSDGRNVKSVVEKNSESKLTQTQVDPKNTTVIVREVDGDTMKTTVTVGDVTAIRNYKRLS	soluble
MGSDKIHHHHHHMAIGLSTYAFFWRASSRVPNPLGLAAMLEQTAESGAGVFQICDYAAVEALSPAELEKLRQRAVDLGIQLELGTRGLATDHLTRYLTMARALDVRFIRTMFNSATHKPTQDEALALLRCVLPEFEQYNIQLGLETYEQVKTRDVLAVVDAIDSPALGICLDPGNCVAALEYPHEVIELTASRVVNLHIKDFAFARQEGWVGFTYSGCLLGTGLLDYDALHQTIRPNERNINQIVEHWLPWQASAEETCRLEDAWTRHSLNYLYTRNPYANRSSHIL	not soluble
MSAYRHAVERIDSSDLACGVVLHSAPGYPAFPVRLATEIFQRALARLPGDGPVTLWDPCCGSGYLLTVLGLLHRRSLRQVIASDVDPAPLELAAKNLALLSPAGLTARELERREQSERFGKPSYLEAAQAARRLRERLTAEGGALPCAIRTADVFDPRALSAVLAGSAPDVVLTDLPYGERTHWEGQVPAQPVAGLLRSLASALPAHAVIAVTDRSRKIPVAPVKALERLKIGTRSAVLVRAADVLEAGP	soluble
MRTVTGAILAMNLEVKDFVHRDVEEADRRLREIGARKILLQLPDGLKPYAFDYFTYLSQRYDVILSSSPVYGACDIGPSYLYDRVDAIVQVGHSIMRNVKYPRPVIFIEHYRTVDVEDINTEALKNYRRIGLIYSIQYRPVADRVKRILESKGFEVIIGRSDRRMTYDGQVLGCNFSSVHSVEAEVEAFVIVSTGSFHALGSQISTERPVFLLDLNEMSLRSMEKEADTFIRKRYAQIYRAMDAKRICFLVDTRIGQRREKLARMLMDRARDLGKEAVLAYTDNISDQDIQNMGCDLAVYTGCPRVPIDDQDRFTVPVLTPAEFSMAFFKSSKRYVLDEIVSVDEFTDQLEHHHHHH	not soluble
MQRERTAESSLRVISKEKNSITVEMINYDNTLLRTLVEEILKDDQVDEARYYIKHPVIDNPQIYVRVKSGKPQSAIKRAVRKLSKLYEDLGTQFQKEFQRYESDHMIKAVE	soluble
MGSDKIHHHHHHMVIQMKFFNREKEIHEILSILEGEPNIIYFIYGPLNSGKTALIKHIIENKLSDDYKVFYINFRTYLISEKREFIEAIFTTKKDDFFEKIKDKSEVLNLITKGAKILTGIPIPEVEFDKLFEEKINDAFQYLNSILLEVKKSGKQPVLILDELQMIKDVVLNWQKYLLKELFQFLVSLTKEQHLCHVFCLSSDSLFIEYVYSAGELEGRAKYLLVDDFDKETALKFMDFLAKEILNKKLSDEDKELIYNYVGGKPVYIYSVIDEMRYRKLEDILNLMLKEETQKLKYFLKELDYIKPKVELKDEIIEIKKDDIINALKLFKENYEVSDDDIPEPVYIYLVKKNILFLNPIEGILKPQSFLIWNAIKKLLNGH	not soluble
MGSDKIHHHHHHMIAHPCYVDKFSQQVHFHAIDFARSRWNIFLLWQLKNLIQQIQPAIVHAQAGKAAELIARIKPFLSGPKFITTVHGTKKNKSAYLAGDAVIAVSQALTQGIPESKAHVVYNGVYPQPVLTTENKEKLLQSIQKDFTELDTSKRVVMCIGRLEPVKNISLLIESMQQIDANLWIVGDGSLRASLEKQVSELNMQNRVAFLGFRTDARDLVQLADIVVLSSDREGFPLVMVEALQADKAMASTKVNGVIEWLPEQYLAEIGDTQGLAKAIEYALQPEAQNDFGPLYAKAKAELTVPAMAEQTLNIYKGLLKT	not soluble
MGSDKIHHHHHHMKTLQTHRVLQALIGHFTPFLESGITELMINTEQELWLYKVNNTREKRGHALFDKAFLLRFCEQLASFRGLFFDEEHPTLNCSIPFTRYRVSANHFSITTNNQITLNIRVPRLKPLSLEDFTFKASDPKSLKDLALKGHNILISGETSSGKTSLLNALLDCVNKDERVVSVEDSQELDLKAFSNCVGLLVGKQENTRFNYEDALNMAMRLNPDRLIVGEIDTRNAALFLRLGNTGHKGMLSTIHANSAQNTLEALSLNLSMRYMYSLDKDLMRAYFKSAIDVIVHVNRINNERQIAEVLWTKEL	not soluble
MGSDKIHHHHHHMTIIAGTVVKGKQLGRKLGFPTANVDAKIHGLRNGVYGVLATVNHQFHLGVMNIGVKPTVGSNLEKTLEIFLFDFHRDIYGEKIECSILFKIREERRFDSLESLTKQIKKDISCVAKRFELIGIMAPNKKESLLSHQELNLPDLCFYKKCNNLYGVNRGVYNVIDNWFFEYGITQVAYRRIYILSFLSFLKEDNPKVSSKYIRFGAGGLADKLNRFISSYVEESEENILG	not soluble
MAHHHHHHMESINRNNNINKNEIDNKINNNNNMDVPIEGNEKSQEGDIIGQFGVGFYSSFVVSNKVEVFTRSYDNNSSKGYHWVSYGNGTFTLKEVDNIPKGTKIICHLKDSCKEFSNIQNVQKIVEKFSSFINFPVYVLKKKKILQTRKDIEQNELNDHTQQNELNHHNDQNDHTQQNELNHHNDQNDHTQQNELNHHNDQNDHTQQNELNHHVEHHKNVVENKNDEYEKNMDNRTSDNIKPESLSKQNDYENMNQCNNEETVLNRTKELNEEHIVEEILVNKQKPLWCKDNVTEEEHRHFFHFLNKNKSYNEDNKSYLYNMLYKTDAPLSIKSVFYIPEEAPSRLFQQSNDIEISLYCKKVLVKKNADNIIPKWLYFVKGVIDCEDMPLNISRENMQDSSLINKLSRVVVSKILKTLEREADINEEKYLKFYKNYNYNLKEGVLEDSNKNHYKNSLMNLLRFYSINQNKFISLKQYVNNFRNNQKNIYYFSANDKNVALNSPYMEPFKKQNIDVLLLLEEIDEFVLMNLQTYKDAKFVSIDTSQNEDFDEAVLNTNKNDNEKKQSIFFNDEQKKELQAYFKQVLGSKCSDVKFSERLTTSPAVVTGFLSPTLRKVMKATMKNSDFNDNTNNSNNMNMFQNLPATLELNPSHTIVTSIYHLKNTNQEVAKLLVQQLYDNACIAAGILEDPRSLLSKLNELLLLTARYAYHYEKKDIQENTKDQPIDVKDNTMAIDNIVNTKENNTNDDSVMKEAQSSNL	not soluble
DKKLAIVIHDNPDPDAISSGLALKEIAKSLGVEASILYHGRIGHQENKAFVNLLGIDLGKMEEHDLKDFDEIALIDCSIPGVNNMVPPNSYVGIVIDHHPPGETEIKAEYIDIRPNFGATATIMTKYLQQLNINISKTLATALLYGIRTDTQDFKRKTDPADLSAASYLYPLSNHGILDQLEQPSMAI	not soluble
MTALTEGAKLFEKEIPYITELEGDVEGMKFIIKGEGTGDATTGTIKAKYICTTGDLPVPWATILSSLSYGVFCFAKYPRHIADFFKSTQPDGYSQDRIISFDNDGQYDVKAKVTYENGTLYNRVTVKGTGFKSNGNILGMRVLYHSPPHAVYILPDRKNGGMKIEYNKAFDVMGGGHQMARHAQFNKPLGAWEEDYPLYHHLTVWTSFGKDPDDDETDHLTIVEVIKAVDLETYR	soluble
MQRTLGEIMKIYFATGNPNKIKEANIILKDLKDVEIEQIKISYPEIQGTLEEVAEFGAKWVYNILKKPVIVEDSGFFVEALNGFPGTYSKFVQETIGNEGILKLLEGKDNRNAYFKTVIGYCDENGVRLFKGIVKGRVSEEIRSKGYGFAYDSIFIPEEEERTFAEMTTEEKSQISHRKKAFEEFKKFLLDRI	soluble
MGSDKIHHHHHHMFTQATFDFLAALEANNERDWFKANQHTYEDKVRTPALALIEAAAPAIVALSPRLTAVAKKVGGSLMRPQRDTRFGHDKRPYKTNVGIQFRHFQGKDVHAPGLYLHIANDGCFVAAGIWHPESKALNAIRSCIDENPATYQKALKALTDSGFAMDGDSLSRPPRGYDKRHPLIDELKRKDFIAVKSLTNHEVLQPDFASRLVAEFEHCQQLMRYLCFALELDY	not soluble
MGSDKIHHHHHHMQNLPIYLYPNTLDVILDSGATTKGVNRVMYQHELKIQKGIKNKVRIQFKNSDQKRIVTSGTYVFSMYDAINQRLLLEKPLDILDDGTTFALRGLAELTLTENDTMDLDVSKYQFSVKYLDEDGTYLPTYSNTYYGVTGTLNLLQDVYPVLQPSQEITSFDRTYDDSIQLYQWRSGNIYATPEFNGNSALHTIAMYMTGFKGKVLVQGTLYNTPSSFNRYVTLGRKRV	not soluble
MRLSISLGESPCISSLKVRGFTASPQTPNLSISVIVTAFNRREYLRYALLSLKNQEADSFEVVVSKNFSDRVTDKFCSENGFINVTTDSSRSGERVYDALRSSHGDFILFLDDDDIFRRTKISRVSDVISKRNVAFYRNAIFPVTVDGVIATHYQPQMHDPLYLILERVSDVRLLHRHACDFNSSSMGISRSMLDSHASDLRKINLAVDTFYFALAASSRMPLFCDSMIESIYRIMPSSTSRDLRDFYLFSRFERSFLRRYVPDLERIAEIVEGSPAKPVIGRMLSLYKILQYVFEEDRVNLKPSPLDRVRFLLERPFPYSLLYSRIFRDAAMRSEFRRENRIVYGNADRRRRLEHHHHHH	soluble
MSLILPPIIAASLPPPPGPHAVGYTFLVHPPLSPFSHSSPTLKSTGKPAFQIEEIGYCLFYPGLPEGKRGKEWVSWVPDPFWGVIRGYERFLGGKGGVSWLVKPLGYIAGRLQMPLHPRAPLKPTDKPYPLLIFSHGLAGTRHTYSQYCAALASEGYVVLAVEHRDGSGPAVVLPPEGESKESRVLYYTGVNDISWAEGEEHPVTHARTLQLDIRTREVYEAYHSFKRLLSHEGDLSIKIEGLEGGHSFGGGTILHLLQSPPPSTLLPSLPAKQAISLDPWLEPLPAPSDILQTPLPSSLPPTLVINSAGFTEWPEHWEKLVEIMKGKGILITMIGIGHQAFSDFPLLSPRGYSHAHSMILKVHELSTAFLNKKLLSGAALAGKTPDKGDYEKDEDGVKIKGKAAMKDGDVLLHFADREEGHHHHHH	soluble
LGEALNIYTPHRIVAFDNSNIQGTNPVSAMIVFIDGKPYKKEYRKYKIKTVTGPDDYGSMREVVRRRYTRVLRENLPLPDLIIIDGGKGQINAARDVIENELGLDIPIAGLAKDEKHRTSNLLIGDPLEVAYLERNSQEFYLLQRIQDEVHRFAI	not soluble
